# Experimental data published in article PMC6079037.
# Several values for one entry are separate records, joined by “and”; a condition that tells them apart may be missing. Equal entries are not always repeated.
# Columns and labels:
# [1] = molecular target: full-length HmTSP-His (Hydra magnipapillata thrombospondin) (Hydra magnipapillata); experiment: non-reducing SDS-PAGE and immunoblot; HmTSP-His from lysates of transfected HEK293T cells, collected on Ni-NTA, eluted in non-reducing SDS sample buffer; 4-20% gradient gels; anti-penta-His blot; laminin chains and prestained markers as size references
# [2] = molecular target: NoHmTSP.V5, truncated HmTSP comprising the N-terminal domain plus the putative oligomerization region (aa 1-296) (Hydra magnipapillata); experiment: non-reducing SDS-PAGE and immunoblot; V5-tagged proteins from conditioned media of transfected COS7 cells, collected on Talon resin, boiled in SDS sample buffer without DTT; 7% SDS-polyacrylamide gels; V5 antibody blot
# [3] = molecular target: HmTSPcc, 25aa synthetic peptide corresponding to HmTSP residues 249-273 (Hydra magnipapillata); experiment: AUC; sedimentation equilibrium; HmTSPcc 400 uM in PBS, 20 °C, 30,000-46,000 rpm; fitted to a single, ideal species model
substance,measurement,setting,value
full-length HmTSP-His (Hydra magnipapillata thrombospondin) (natural protein),stoichiometry N,[1],> 4
"NoHmTSP.V5, truncated HmTSP comprising the N-terminal domain plus the putative oligomerization region (aa 1-296) (domain or fragment)",stoichiometry N,[2],5 and 4
"HmTSPcc, 25aa synthetic peptide corresponding to HmTSP residues 249-273",stoichiometry N (x monomer mass),[3],2.98
